Assay results reported in patent US20230256092A1, “COMBINED USE OF ANTI-CCR8 ANTIBODY AND CHEMOTHERAPEUTIC AGENT” (Shionogi & Co., Ltd., priority 2020, published 2023).
Numbering of substitutions follows the chain as printed. Names and notes keep the numbering of the source.

Tests used:
mouse CCR8 = biological target: T1, mouse CCR8 (Mus musculus, UniProt P56484); assay: Antigen-binding test on transiently expressing Expi293 cells; set-up: key: an antibody having significantly reduced binding activity was indicated as A; an antibody having binding activity of the detection limit or less was indicated as x; The blank column means that it exhibits the same binding activity as the wild-type human CCR8 (hCCR8); settings: 5, 0.5 and 0.05 ug/mL, in comparison to wild-type hCCR8
T1 construct: expressed in transfected cells; host or cells: Expi293 cells, pcDNA 3.4 vector, transient
T1 sequence (P56484 1-353): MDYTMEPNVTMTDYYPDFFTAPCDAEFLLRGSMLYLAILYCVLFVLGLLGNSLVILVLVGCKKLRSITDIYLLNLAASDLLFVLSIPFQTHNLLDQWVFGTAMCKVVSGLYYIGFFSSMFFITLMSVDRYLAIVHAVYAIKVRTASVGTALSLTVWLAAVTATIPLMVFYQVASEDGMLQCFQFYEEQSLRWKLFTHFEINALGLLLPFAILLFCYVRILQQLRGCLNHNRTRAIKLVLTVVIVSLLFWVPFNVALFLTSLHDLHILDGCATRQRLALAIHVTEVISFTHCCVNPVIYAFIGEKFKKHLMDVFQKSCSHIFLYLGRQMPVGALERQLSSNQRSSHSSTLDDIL
Description: (§1) The gene encoding the full length of human CCR8 (UniProtKB/Swiss-Prot: P51685, SEQ ID NO: 1), the gene encoding the full length of human CCR4 (UniProtKB/Swiss-Prot: P51679, SEQ ID NO: 48) and the gene encoding the full length of mouse CCR8 (UniProtKB/Swiss-Prot: P56484, SEQ ID NO: 39) were cloned into pcDNA 3.4 vectors, respectively. These vectors were used for transfection to produce Expi293 cells transiently expressing human CCR8, human CCR4, or mouse CCR8. These cells were reacted with a dilution series of the purified antibodies of each clone, and the binding properties thereof were evaluated by detection with Alexa488-labeled anti-mouse IgG antibody (manufactured by Thermo Fisher Scientific). As a result, every antibody bound to human CCR8, but not to human CCR4 and mouse CCR8 at all.

human CCR4 = biological target: T2, human CCR4 (Homo sapiens, UniProt P51679); assay: as above; set-up: key: an antibody having significantly reduced binding activity was indicated as A; an antibody having binding activity of the detection limit or less was indicated as x; The blank column means that it exhibits the same binding activity as the wild-type human CCR8 (hCCR8); settings: 5, 0.5 and 0.05 ug/mL, in comparison to wild-type hCCR8
T2 construct: expressed in transfected cells; host or cells: Expi293 cells, pcDNA 3.4 vector, transient
T2 sequence (P51679 1-360): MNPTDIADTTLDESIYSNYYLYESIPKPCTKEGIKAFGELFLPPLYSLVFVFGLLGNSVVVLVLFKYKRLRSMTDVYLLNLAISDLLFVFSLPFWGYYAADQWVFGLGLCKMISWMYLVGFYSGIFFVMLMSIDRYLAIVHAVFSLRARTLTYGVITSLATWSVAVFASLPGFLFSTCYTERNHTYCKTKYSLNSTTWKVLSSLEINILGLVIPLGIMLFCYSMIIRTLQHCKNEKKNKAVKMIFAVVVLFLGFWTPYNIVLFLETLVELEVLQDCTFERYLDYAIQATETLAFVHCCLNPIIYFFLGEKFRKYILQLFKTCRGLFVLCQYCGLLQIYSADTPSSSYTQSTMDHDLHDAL
Description: as §1

hCCR8 (T11A) = biological target: T3, hCCR8 (T11A) (Homo sapiens, UniProt P51685, T11A); assay: Antigen-binding test, human CCR8 point mutant; settings: in comparison to wild-type hCCR8
T3 construct: expressed in transfected cells; host or cells: Expi293 cells (method similar to that for the wild type)
Description: (§2) Further, to analyze in more detail the N-terminal region that is an epitope region common to all clones having strong neutralization, the human CCR8 point mutants shown in Table 2 were produced. […] It is thus considered that the neutralizing antibodies recognize Y at position 17. In addition, although clone No. 8F7 is only shown in Table 2, plural other neutralizing antibodies had reduced binding activity to the mutant in which I at position 20 of human CCR8 is substituted with A (hCCR8 (I20A)). It is thus considered that some neutralizing antibodies have stereo-structural recognition to bind to isoleucine at position 20.

hCCR8 (L5A) = biological target: T4, hCCR8 (L5A) (Homo sapiens, UniProt P51685, L5A); assay: Antigen-binding test, human CCR8 point mutant; settings: in comparison to wild-type hCCR8
T4 construct: expressed in transfected cells; host or cells: Expi293 cells (method similar to that for the wild type)

hCCR8 (K35A) = biological target: T5, hCCR8 (K35A) (Homo sapiens, UniProt P51685, K35A); assay: Antigen-binding test, human CCR8 point mutant; set-up: key: an antibody having significantly reduced binding activity was indicated as A; an antibody having binding activity of the detection limit or less was indicated as x; The blank column means that it exhibits the same binding activity as the wild-type human CCR8 (hCCR8); settings: in comparison to wild-type hCCR8
T5 construct: expressed in transfected cells; host or cells: Expi293 cells (method similar to that for the wild type)
Description: as §2

loop1 hCCR4-hCCR8 = biological target: T6, loop1 hCCR4-hCCR8 (Homo sapiens, UniProt P51685, L95A/L96A/M105L/T103L/V104G); assay: Antigen-binding test, chimera; settings: 5, 0.5 and 0.05 ug/mL, in comparison to wild-type hCCR8
T6 construct: expressed in transfected cells; host or cells: Expi293 cells (method similar to that for the wild type)

loop2 hCCR4-hCCR8 = biological target: T7, loop2 hCCR4-hCCR8 (Homo sapiens, UniProt P51685, A175Y/D178R/F186K/F197L/F200L/G179N/I196V/K193T/K201E/L181T/L192T/M202I/N188S/N199S/Q173T/Q182Y/Q189L/Q190N/S176T/S185T/T191S/T198S/V174C/V180H/Y172S/Y184K); assay: Antigen-binding test, chimera; settings: 5, 0.5 and 0.05 ug/mL, in comparison to wild-type hCCR8
T7 construct: expressed in transfected cells; host or cells: Expi293 cells (method similar to that for the wild type)

[1] = test system: colon cancer-derived Colon26 cells; assay: Example 11: hCCR8-KI (KI/KI) mice inoculated with Colon26 cells, oxaliplatin combination (Part 2); format: in vivo, mouse; settings: as Example 6; 2-7B part: oxaliplatin 10, 14, 17 days, antibody 14, 17 days; 19D7 part: oxaliplatin 10, 14 days, antibody 14 days; combinations from 10 days; Student's T one-sided
Description: The back of each hCCR8-KI (KI/KI) mouse (12 weeks old, female) prepared in Test Example 10 was intracutaneously inoculated with 3.5×10^5 colon cancer-derived Colon26 cells (50 uL).
To an oxaliplatin single administration group, saline was intravenously administered 5 days after tumor inoculation, and oxaliplatin (trade name: ELPLAT, Yakult Honsha Company, Limited) at 5 mg/kg body weight was intravenously administered 3 hours after the administration of the saline (N=10). To an anti-mouse CCR8 antibody and oxaliplatin combined administration group, an anti-human CCR8 antibody at 15 mg/kg body weight was intravenously administered 5 days after tumor inoculation, and oxaliplatin at 5 mg/kg body weight was intravenously administered 3 hours after the administration of the anti-mouse CCR8 antibody (N=10). To a control group, saline was intravenously administered 5 days after tumor inoculation, and saline was intravenously administered 3 hours after the administration of the saline (N=10). […] Tumor volumes were measured every 1 to 3 days from 4 days after tumor inoculation (a day before antibody administration). The tumor volume (mm^3) was measured in long diameter (mm)×short diameter (mm)×short diameter (mm)/2, and a significant difference test based on a Mann-Whitney U method (significance level: P<0.05) was conducted. […]

human CCR8 = biological target: T8, human CCR8 (Homo sapiens, UniProt P51685); assay: Neutralizing activity: inhibition of Ca2+ influx by 200 nM hCCL1 in human CCR8 expressing 293 cells (FLIPR), Test Example 6; format: cell-based; settings: Table 9; WT IC50/mutant IC50; humanized 10A11 heavy chain CDR mutants, IGKV4-1/IGHV3-73
T8 construct: expressed in transfected cells; host or cells: 293 cells
Description: The antibody dilution diluted with a medium was added to human CCR8 expressing 293 cells in which a Ca^2+ indicator was incorporated beforehand, and Ca^2+ influx by addition of 200 nM hCCL1 (manufactured by BioLegend) was measured with FLIPR. […] The evaluation was performed at least three times, and IC50 was expressed as average±SD.

B1: 2C7: mouse anti-human CCR8 neutralizing antibody; light chain SEQ ID NO: 35, heavy chain SEQ ID NO: 36 (antibody, V domains shown)
VH: QVQLKQSGPSLVQPSQSLSITCTVSGFSLTAYGVHWIRQSPGKGQEWLGVIWRGGSTDYNAAFMSRLTITKDNSKSQVFFKMNSLQADDTAIYYCAKKGGSYAMDYWGQGTSVTVSS
VL: DVVLTQTPLSLPVSLGGQASISCRSSQSLVHSNGNTYLHWYLQKPGQSPKLLIYKVSNRFSGVPDRFSGSGSGTDFTLKISRVEAEDLGVYFCSQSTQVPLTFGAGTKLELKR
modifications: 2C7 VH; 2C7 VL
With B1 the “binding activity, mCCR8” value (mouse CCR8) was “x” and the “binding activity, hCCR4” value (human CCR4) was “x”.

B2: 1H4: mouse anti-human CCR8 neutralizing antibody; light chain SEQ ID NO: 29, heavy chain SEQ ID NO: 30 (antibody, V domains shown)
VH: EVQLVESGGRLVQPKGSLKLSCAASGFTFNTYAMYWIRQAPGKGLEWVARIRSKSNNYATYYADSVKDRFTISRDDSQSMLYLQMNNLKTEDTAMYYCVRARFYYSDYGYAMDYWGQGTSVTVSS
VL: DIVMTQAAPSVPVTPGESVSISCRSSKSLLHSNGNTYLYWFLQRPGQSPQLLIYRMSNLASGVPDRFSASGSGTAFTLRISRVEAEDVGVYYCMQHLEYPLTFGAGTKLELKR
modifications: 1H4 VH; 1H4 VL
In the case of B2, the “binding activity, hCCR8 (T11A)” value (hCCR8 (T11A)) is reported as “Δ”, the “binding activity, mCCR8” value (mouse CCR8) is reported as “x” and the “binding activity, hCCR4” value (human CCR4) is reported as “x”. The “binding activity, hCCR8 (L5A)” value (hCCR8 (L5A)) was “Δ”, the “binding activity, hCCR8 (K35A)” value (hCCR8 (K35A)) was “x” and the “binding activity, loop1 hCCR4-hCCR8” value (loop1 hCCR4-hCCR8) was “Δ”. The “binding activity, loop2 hCCR4-hCCR8” value (loop2 hCCR4-hCCR8) was “Δ”.

B3: 2-7B: rat anti-human CCR8 antibody; light chain SEQ ID NO: 37, heavy chain SEQ ID NO: 38 (antibody, V domains shown)
VH: EVQLVESDGGLVQPGRSLKLSCAASGFTFSDYYMAWVRQAPTKGLEWVATITYDVYSTYYRDSVKGRFTISRDNAKSTLYLQMDSLRSEDTATYYCARHGGDGYNSGNWFAYWGQGTLVTVSS
VL: DIVLTQSPALAVSLGQRATISCRASQSVSISRYNIMHWYQQKPGQQPKLLIYRASNLASGIPARFSGSGSGTDFTLTINPVQADDIATYYCQQSRESPPTFGGGTKLELKR
modifications: 2-7B VH; 2-7B VL
B3 was tested, and the “tumor volume as compared to the control group” value [1] was “no significant decrease”.

B4: h10A11 (IGKV4-1/IGHV3-73 A100eV): humanized 10A11 heavy chain CDR point mutant (antibody, V domains shown)
VL: DIVMTQSPDSLAVSLGERATINCRSSKSLLHSNGNTYLYWYQQKPGQPPKLLIYRMSNLASGVPDRFSGSGSGTDFTLTISSLQAEDVAVYYCMQHLEYPLTFGQGTKLEIKRT
VH: EVQLVESGGGLVQPGGSLKLSCAASGFAFNTYALYWVRQASGKGLEWVGRIRSKSNNYATYYADSVKDRFTISRDDSKNTAYLQMNSLKTEDTAVYYCTRARFYYSDYGYVMDYWGQGTLVTVSS
B4 was tested, and the IC50 ratio (human CCR8) was 0.49.

B5: h10A11 (IGKV4-1/IGHV3-73 M100fL): humanized 10A11 heavy chain CDR point mutant (antibody, V domains shown)
VL: B4 VL
VH: B4 VH with V111A, M112L
Molecule B5 has an IC50 ratio (human CCR8) of 0.72.

B6: h10A11 (IGKV4-1/IGHV3-73 A33V): humanized 10A11 heavy chain CDR point mutant (antibody, V domains shown)
VL: B4 VL
VH: B4 VH with A33V, V111A
In the case of B6, the IC50 ratio (human CCR8) is reported as “n.d. (The n.d. (=not detectable) indicates that the IC50 value of the mutant is 10 nM or more)”.

B7: h10A11 (IGKV4-1/IGHV3-73 T31A): humanized 10A11 heavy chain CDR point mutant (antibody, V domains shown)
VL: B4 VL
VH: B4 VH with T31A, V111A
Work on B7 yielded an IC50 ratio (human CCR8) of 0.17.

B8: h10A11 (IGKV4-1/IGHV3-73 Y102F): humanized 10A11 heavy chain CDR point mutant (antibody, V domains shown)
VL: B4 VL
VH: B4 VH with V111A, Y114F
Molecule B8 has an IC50 ratio (human CCR8) of 0.99.

B9: h10A11 (IGKV4-1/IGHV3-73 Y32F): humanized 10A11 heavy chain CDR point mutant (antibody, V domains shown)
VL: B4 VL
VH: B4 VH with Y32F, V111A
With B9 the IC50 ratio (human CCR8) was 0.44.

B10: h10A11 (IGKV4-1/IGHV3-73 D101E): humanized 10A11 heavy chain CDR point mutant (antibody, V domains shown)
VL: B4 VL
VH: B4 VH with V111A, D113E
With B10 the IC50 ratio (human CCR8) was “n.d. (The n.d. (=not detectable) indicates that the IC50 value of the mutant is 10 nM or more)”.

B11: h10A11 (IGKV4-1/IGHV3-73 Y35F): humanized 10A11 heavy chain CDR point mutant (antibody, V domains shown)
VL: B4 VL
VH: B4 VH with Y35F, V111A
With B11 the IC50 ratio (human CCR8) was “n.d. (The n.d. (=not detectable) indicates that the IC50 value of the mutant is 10 nM or more)”.

B12: h10A11 (IGKV4-1/IGHV3-73 L34I): humanized 10A11 heavy chain CDR point mutant (antibody, V domains shown)
VL: B4 VL
VH: B4 VH with L34I, V111A
B12 showed an IC50 ratio (human CCR8) of 0.43.
